Tests used:
[1] = biological target: T1, myc-(p38/JTV-1), amino acids 1-312 (full length)
T1 chain: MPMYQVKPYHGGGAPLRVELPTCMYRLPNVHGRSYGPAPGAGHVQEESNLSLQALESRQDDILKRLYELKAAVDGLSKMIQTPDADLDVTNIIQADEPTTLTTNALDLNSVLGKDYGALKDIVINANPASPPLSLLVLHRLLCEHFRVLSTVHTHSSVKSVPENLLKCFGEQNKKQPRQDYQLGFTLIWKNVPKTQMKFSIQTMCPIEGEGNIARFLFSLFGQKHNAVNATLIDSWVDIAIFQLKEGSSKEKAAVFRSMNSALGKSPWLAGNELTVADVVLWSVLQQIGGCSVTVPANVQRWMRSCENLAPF

B42-(p38/JTV-1) = biological target: T2, B42-(p38/JTV-1) (human, UniProt Q13155 1-312); experiment: yeast two-hybrid (LexA system), blue colony on X-gal
T2 construct: Yeast two-hybrid prey; also called pB42-(p38/JTV-1); not shown: B42 protein from pB42 vector (Invitrogen)
T2 sequence: T1 chain
Source text: (§1) Using the recombinant plasmids constructed in the above, Saccaromyces cerevisiae EGY48 (Clontech laboratories Inc. Estojak et al. (1995)) having a lacZ plasmid (p8op-LacZ) as a probe gene was transformed according to the known methods (Golemis, E. A., et al., In Current Protocols in Molecular Biology, 1994).

[2] = biological target: T3, B42-WRS (tryptophanyl-tRNA synthetase) (UniProt P23381 1-471); experiment: as above
T3 construct: Yeast two-hybrid prey; also called tryptophanyl-WRS; pB42-WRS; not shown: B42 protein from pB42 vector (Invitrogen)
T3 sequence (looked up): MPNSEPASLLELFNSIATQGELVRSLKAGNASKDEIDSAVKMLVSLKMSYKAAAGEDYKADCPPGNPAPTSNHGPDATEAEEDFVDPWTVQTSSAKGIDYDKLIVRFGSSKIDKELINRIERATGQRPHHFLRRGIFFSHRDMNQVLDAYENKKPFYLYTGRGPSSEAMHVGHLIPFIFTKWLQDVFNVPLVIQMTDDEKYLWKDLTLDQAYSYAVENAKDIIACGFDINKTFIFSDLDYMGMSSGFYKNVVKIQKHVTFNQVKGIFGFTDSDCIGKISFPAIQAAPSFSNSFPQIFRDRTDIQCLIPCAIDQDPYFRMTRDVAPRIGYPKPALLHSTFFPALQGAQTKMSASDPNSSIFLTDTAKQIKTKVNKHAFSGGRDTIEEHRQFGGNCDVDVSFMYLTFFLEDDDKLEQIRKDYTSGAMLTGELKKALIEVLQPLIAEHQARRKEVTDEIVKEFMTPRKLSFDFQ
Source text: as §1

[3] = biological target: T4, B42-YRS (tyrosyl-tRNA synthetase) (UniProt P54577 1-528); experiment: as above
T4 construct: Yeast two-hybrid prey; also called tyrosyl-YRS; pB42-YRS; not shown: B42 protein from pB42 vector (Invitrogen)
T4 sequence (looked up): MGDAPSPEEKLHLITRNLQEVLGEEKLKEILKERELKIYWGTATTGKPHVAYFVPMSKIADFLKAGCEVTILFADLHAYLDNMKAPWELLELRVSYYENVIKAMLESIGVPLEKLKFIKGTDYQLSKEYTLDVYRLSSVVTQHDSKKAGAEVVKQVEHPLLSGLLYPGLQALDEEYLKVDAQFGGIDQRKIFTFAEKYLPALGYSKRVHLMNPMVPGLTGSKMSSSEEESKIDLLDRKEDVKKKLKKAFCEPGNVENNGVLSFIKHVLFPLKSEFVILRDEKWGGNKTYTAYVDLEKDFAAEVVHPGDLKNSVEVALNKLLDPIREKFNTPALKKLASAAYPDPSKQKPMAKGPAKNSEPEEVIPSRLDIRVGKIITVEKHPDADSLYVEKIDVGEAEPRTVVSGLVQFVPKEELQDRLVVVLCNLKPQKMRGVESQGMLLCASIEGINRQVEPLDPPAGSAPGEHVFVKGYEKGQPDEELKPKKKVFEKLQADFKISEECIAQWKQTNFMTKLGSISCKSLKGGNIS
Source text: as §1

[4] = biological target: T5, B42-QRS (glutaminyl-tRNA synthetase) (UniProt P47897 1-775); experiment: as above
T5 construct: Yeast two-hybrid prey; also called pB42-QRS; not shown: B42 protein from pB42 vector (Invitrogen)
T5 sequence (looked up): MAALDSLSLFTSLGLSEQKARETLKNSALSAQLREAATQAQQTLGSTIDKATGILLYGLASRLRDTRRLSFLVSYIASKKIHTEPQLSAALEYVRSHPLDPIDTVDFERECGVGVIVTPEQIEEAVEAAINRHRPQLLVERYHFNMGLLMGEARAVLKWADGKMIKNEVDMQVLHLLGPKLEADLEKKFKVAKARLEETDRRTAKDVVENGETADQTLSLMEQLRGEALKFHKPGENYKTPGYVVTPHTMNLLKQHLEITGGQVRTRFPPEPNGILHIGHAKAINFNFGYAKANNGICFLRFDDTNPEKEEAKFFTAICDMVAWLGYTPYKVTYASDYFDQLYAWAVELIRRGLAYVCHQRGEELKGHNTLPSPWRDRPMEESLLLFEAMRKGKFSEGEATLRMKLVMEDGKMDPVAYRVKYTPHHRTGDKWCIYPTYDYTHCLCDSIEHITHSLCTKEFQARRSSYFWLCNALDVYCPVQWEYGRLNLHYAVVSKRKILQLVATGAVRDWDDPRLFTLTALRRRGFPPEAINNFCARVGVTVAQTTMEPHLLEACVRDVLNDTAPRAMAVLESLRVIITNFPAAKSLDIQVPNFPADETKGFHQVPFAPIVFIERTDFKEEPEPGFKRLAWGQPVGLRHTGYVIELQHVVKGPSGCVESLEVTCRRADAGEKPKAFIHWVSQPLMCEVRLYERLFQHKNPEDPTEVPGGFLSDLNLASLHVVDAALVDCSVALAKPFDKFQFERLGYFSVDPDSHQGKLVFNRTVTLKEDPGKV
Source text: as §1

[5] = biological target: T6, PDK-1 (phosphoinositide-dependent kinase) (UniProt O15530 1-556, limits assumed); experiment: anti PDK-1 immunoprecipitation from HCT116 cells treated with FasL or TNF, western blot with p38/JTV-1 antibody
T6 construct: Endogenous protein of the cell lysate
T6 sequence (looked up): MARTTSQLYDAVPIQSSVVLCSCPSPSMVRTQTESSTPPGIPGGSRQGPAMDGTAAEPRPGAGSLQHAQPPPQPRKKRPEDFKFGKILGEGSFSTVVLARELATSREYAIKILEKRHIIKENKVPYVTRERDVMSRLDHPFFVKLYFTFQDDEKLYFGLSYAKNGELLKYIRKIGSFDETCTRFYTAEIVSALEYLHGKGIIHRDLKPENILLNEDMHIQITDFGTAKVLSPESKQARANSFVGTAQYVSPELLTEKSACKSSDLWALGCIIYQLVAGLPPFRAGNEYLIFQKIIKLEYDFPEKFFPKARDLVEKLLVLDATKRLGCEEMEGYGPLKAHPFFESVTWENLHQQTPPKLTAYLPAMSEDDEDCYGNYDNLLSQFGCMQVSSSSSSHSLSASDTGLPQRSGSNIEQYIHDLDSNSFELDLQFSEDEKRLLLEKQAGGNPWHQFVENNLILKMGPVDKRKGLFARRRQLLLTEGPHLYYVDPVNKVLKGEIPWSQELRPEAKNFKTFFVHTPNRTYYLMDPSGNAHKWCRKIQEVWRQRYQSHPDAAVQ

HA-FBP = biological target: T7, HA-FBP (human, UniProt Q96AE4 1-644); experiment: co-immunoprecipitation with anti-myc from 293 cells, western blot
T7 construct: also called HA-tagged FBP; FBP expression plasmid product; not shown: HA tag from HA-tagged pcDNA3 (Invitrogen)
T7 sequence (looked up): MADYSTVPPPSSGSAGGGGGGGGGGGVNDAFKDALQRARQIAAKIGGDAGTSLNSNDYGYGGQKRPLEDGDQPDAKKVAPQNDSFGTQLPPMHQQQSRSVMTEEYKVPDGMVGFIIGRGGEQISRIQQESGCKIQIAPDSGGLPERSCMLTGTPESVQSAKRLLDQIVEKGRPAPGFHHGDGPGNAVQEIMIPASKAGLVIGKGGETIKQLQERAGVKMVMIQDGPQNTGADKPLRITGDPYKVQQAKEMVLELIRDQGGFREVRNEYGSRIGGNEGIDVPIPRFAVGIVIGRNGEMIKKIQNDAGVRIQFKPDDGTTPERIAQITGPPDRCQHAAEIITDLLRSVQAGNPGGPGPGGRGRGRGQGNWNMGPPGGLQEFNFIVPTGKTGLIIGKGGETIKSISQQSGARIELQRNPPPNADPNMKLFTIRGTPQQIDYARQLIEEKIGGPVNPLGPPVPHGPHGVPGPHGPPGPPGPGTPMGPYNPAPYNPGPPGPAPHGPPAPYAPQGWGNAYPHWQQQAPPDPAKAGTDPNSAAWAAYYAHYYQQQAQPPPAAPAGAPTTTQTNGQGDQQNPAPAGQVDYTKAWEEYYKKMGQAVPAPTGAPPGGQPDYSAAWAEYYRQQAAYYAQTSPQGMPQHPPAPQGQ
Method: The transfected cells were lysed with the RIPA buffer for 16 hours after the transfection. […] After a protein A-agarose bead had been added to the above reactant, the mixture was incubated further for 1 hour at 4° C. The bead was washed with lysis buffer four times. The precipitated proteins were analyzed by SDS-PAGE and then transferred onto nitrocellulose membranes.

B1: PDK-1 (phosphoinositide-dependent kinase) (protein)
chain: T6 sequence (looked up)
Question: B1 was tested. Which “expression level of the phosphorylated AKT (p-308 and p-473)” value [1] did it give?
Answer: when the expression level of p38/JTV-1 was increased, the expression level of the phosphorylated AKT (p-308 and p-473) was decreased

B2: LexA-(p38/JTV-1) (other)
chain: T1 chain
notes: Yeast two-hybrid bait expressed in S. cerevisiae EGY48; also called fusion protein of p38/JTV-1 and LexA; pLexA-(p38/JTV-1); not shown: LexA protein encoded by pLex202 vector (Invitrogen)
Question: Which results are given for B2?
Answer: binding result (B42-(p38/JTV-1)): binds; binding result [2]: no binding; binding result [3]: no binding; binding result [4]: no binding

B3: myc-(p38/JTV-1), amino acids 1-312 (full length) (other)
chain: T1 chain
notes: also called myc-tagged p38/JTV-1; p38/JTV-1 expression plasmid product; not shown: myc tag from myc-tagged pcDNA3 (Invitrogen)
Question: Does B3 bind [5]?
Answer: binds

B4: myc-tagged p38/JTV-1 deletion fragment, amino acids 162-312 (other)
chain: PENLLKCFGEQNKKQPRQDYQLGFTLIWKNVPKTQMKFSIQTMCPIEGEGNIARFLFSLFGQKHNAVNATLIDSWVDIAIFQLKEGSSKEKAAVFRSMNSALGKSPWLAGNELTVADVVLWSVLQQIGGCSVTVPANVQRWMRSCENLAPF
notes: not shown: myc tag from myc-tagged pcDNA3 (Invitrogen)
Question: Does B4 bind (HA-FBP)?
Answer: no binding

Reference: US20040175375A1 (SEOUL NATIONAL UNIVERSITY INDUSTRY FOUNDATION, published 2004)
